± gives the uncertainty stated by the source.
Test: amyloid nucleation score (Sup35N fusion, yeast selection) (log enrichment); library NNK3; higher = more nucleation; inactive = no reads after selection
Outline: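 Sup35N was fused to peptides of 20 random codons and expressed in psi-negative yeast, which were induced with 100 μM copper sulfate for 24 hours and then grown on medium lacking adenine and uracil for 7 days at 30°C. Plasmid inserts from input and output were sequenced on Illumina. The nucleation score is the DiMSum log enrichment of output over input reads, centred on the mode score of non-aggregating sequences. Sequences with under 100 input reads were left out, and random libraries had three technical output replicates.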
ICIHLELRILCPHHAPDGSL gave an amyloid nucleation score of -0.118 ± 0.43.
With ICKRYYLPINFRG the amyloid nucleation score was “inactive”.
ICLAFRPECCCGIWTDKRIG showed an amyloid nucleation score of 1.74 ± 0.088.
For ICTCKWRLTLEQTSFVDGLT, the amyloid nucleation score was “inactive”.
For ICTGDSNNSGYVCQLVTKEE, the amyloid nucleation score was “inactive”.
Work on IDCLLLFSIGEVLKSGNNSR yielded an amyloid nucleation score of 0.335 ± 0.17.
With IDGTCFARIFRCCIFYLR the amyloid nucleation score was “inactive”.
In the case of IDPQS, the amyloid nucleation score is reported as “inactive”.
With IDTTQVLGMNS the amyloid nucleation score was “inactive”.
With IDVKMGSYFVYHDGLFIFRV the amyloid nucleation score was “inactive”.
In the case of IDYSNVYSISRPSMFCWRNN, the amyloid nucleation score is reported as “inactive”.
In the case of IECRARRSVCLL, the amyloid nucleation score is reported as “inactive”.
In the case of IEFMCLHGKVTLITIVF, the amyloid nucleation score is reported as “inactive”.
For IEGSKSDNIGIVHDFMFES, the amyloid nucleation score was “inactive”.
In the case of IENNSPLSSFLGYGKCIP, the amyloid nucleation score is reported as “inactive”.
For IFASDTVL, the amyloid nucleation score was “inactive”.
In the case of IFIMKARSKFPRVPFFQEFP, the amyloid nucleation score is reported as 1.23 ± 0.13.
For IFKNTVTLRN, the amyloid nucleation score was “inactive”.
With IFLCLSICMFRPFRMVLS the amyloid nucleation score was “inactive”.
IFNLHWDTMLSIHMSIDALR gave an amyloid nucleation score of 1.91 ± 0.1.
For IFTVCHVGSACSGNCTGQ, the amyloid nucleation score was 3.01 ± 0.06.
In the case of IFVFLHLHLIWFYSSSWLMD, the amyloid nucleation score is reported as “inactive”.
In the case of IFVGVSYVHFRLEH, the amyloid nucleation score is reported as 1.8 ± 0.099.
Substance IFVLLVRANV has an amyloid nucleation score of -0.449 ± 0.7.
With IFVLQGRKYSSTSWLITHHC the amyloid nucleation score was “inactive”.
In the case of IFVVP, the amyloid nucleation score is reported as “inactive”.
With IFWVSRSDA the amyloid nucleation score was “inactive”.
With IFYCLSYLGTSVVEIHCLYA the amyloid nucleation score was “inactive”.
In the case of IFYVLSTMNDSIVV, the amyloid nucleation score is reported as “inactive”.
Substance IGAWHVLITGCTFQEIPR has an amyloid nucleation score of 1.88 ± 0.064.
With IGCEQDADNYNRSWWIWMKF the amyloid nucleation score was “inactive”.
With IGEPCLWNSV the amyloid nucleation score was “inactive”.
With IGITHFRTCDGHNVRGRNRW the amyloid nucleation score was “inactive”.
In the case of IGKKVCMCRDKGGLIGLRGG, the amyloid nucleation score is reported as “inactive”.
For IGLFNTNVWKCFDCDTPAMF, the amyloid nucleation score was “inactive”.
For IGLLYLHLPNIALINRSVVG, the amyloid nucleation score was “inactive”.
IGMYNEGFGMVLMTCPRLFF showed an amyloid nucleation score of 2.09 ± 0.077.
For IGRPGVRYNLKCRGRIRG, the amyloid nucleation score was “inactive”.
For IGRVNSSGVQDGSHCYECES, the amyloid nucleation score was 0.481 ± 0.27.
With IGVDVTYSKGLSGTIDKSLG the amyloid nucleation score was “inactive”.
For IHILFGTSWLMTRLFCLVK, the amyloid nucleation score was “inactive”.
With IHKTFLTL the amyloid nucleation score was “inactive”.
IHLRDMSLS showed an amyloid nucleation score of 0.591 ± 0.16.
Substance IIFFWILS has an amyloid nucleation score of 0.16 ± 0.29.
In the case of IIMISLITYFLSLNTSKLYQ, the amyloid nucleation score is reported as “inactive”.
In the case of IIRCKMM, the amyloid nucleation score is reported as -0.538 ± 0.57.
For IIRMMFISFN, the amyloid nucleation score was 1.84 ± 0.076.
For IISMPLGACMKAARMSF, the amyloid nucleation score was “inactive”.
With IITSLK the amyloid nucleation score was 0.154 ± 0.27.
In the case of IIVTL, the amyloid nucleation score is reported as “inactive”.
With IIYPAMTHFLSYMYRVNCVS the amyloid nucleation score was “inactive”.
For IIYVNTSEGVSVFRNWSDDV, the amyloid nucleation score was “inactive”.
Work on IKATWRSFMCVIFNLLLLP yielded an amyloid nucleation score of -0.184 ± 1.3.
For IKCMNTLTDCCGMV, the amyloid nucleation score was “inactive”.
For IKCVCFLCPNQ, the amyloid nucleation score was 1.02 ± 0.19.
With IKFGLTYSRSTMSGHSLKGY the amyloid nucleation score was “inactive”.
In the case of IKLARSAYQLSSVNMRVKVI, the amyloid nucleation score is reported as “inactive”.
In the case of IKLHGQAHLIMSTLLPYMHK, the amyloid nucleation score is reported as “inactive”.
In the case of IKRSGGYVGFCRLVERSQRG, the amyloid nucleation score is reported as “inactive”.
For IKYKDKGIWFLVSCGHFRLR, the amyloid nucleation score was “inactive”.
Substance ILDDSSWNSLTANVVVWTYF has an amyloid nucleation score of -1.05 ± 1.3.
With ILFLNHDMWQCDNDSLKAIH the amyloid nucleation score was “inactive”.
In the case of ILFRGPKLCKNGHVL, the amyloid nucleation score is reported as “inactive”.
In the case of ILHLQSPGQATCANNKCLFP, the amyloid nucleation score is reported as “inactive”.
For ILIEVFLWSCYKYVNC, the amyloid nucleation score was “inactive”.
With ILIPNNFLLMQLDWLLIEF the amyloid nucleation score was “inactive”.
For ILIRREFGLFTNFSMYGSKA, the amyloid nucleation score was “inactive”.
For ILKLQEQTSNGLAVSNESSC, the amyloid nucleation score was “inactive”.
With ILKYCQTSLRGERPILLLDF the amyloid nucleation score was “inactive”.
ILLIINFG gave an amyloid nucleation score of 2.21 ± 0.065.
For ILLQVLIR, the amyloid nucleation score was “inactive”.
In the case of ILPGL, the amyloid nucleation score is reported as “inactive”.
For ILQMVDVGMEICYTPVLAYF, the amyloid nucleation score was “inactive”.
With ILRWRHMVVWSPNVHGVGAF the amyloid nucleation score was “inactive”.
In the case of ILSLTFCVRRGEHGMASFCL, the amyloid nucleation score is reported as 0.07 ± 0.46.
With ILTIEDGIIYC the amyloid nucleation score was “inactive”.
Substance ILVFM has an amyloid nucleation score of 0.509 ± 0.24.
For ILVYSVLIV, the amyloid nucleation score was “inactive”.
In the case of IMDGFWCIDTGCLTAHGMWM, the amyloid nucleation score is reported as “inactive”.
In the case of IMEFYERMLFL, the amyloid nucleation score is reported as “inactive”.
In the case of IMGTYKSDLVAARFRFYV, the amyloid nucleation score is reported as “inactive”.
For IMKTYLLMLSFFRNPPMVVL, the amyloid nucleation score was “inactive”.
For IMRMRLVCWTYKYNSLLPFV, the amyloid nucleation score was “inactive”.
In the case of IMSRCKNSYASLATVSCRSL, the amyloid nucleation score is reported as “inactive”.
IMYSYNGRLCGTIELSFPGL gave an amyloid nucleation score of 0.814 ± 0.26.
For INLGKTSIRSIDRNNVCMLG, the amyloid nucleation score was “inactive”.
For INMALYSSLNLVG, the amyloid nucleation score was 1.32 ± 0.078.
For INMNDSINGS, the amyloid nucleation score was 0.231 ± 0.62.
In the case of INPLLR, the amyloid nucleation score is reported as 0.744 ± 0.2.
With INSRKSHGLSEPSHYQT the amyloid nucleation score was “inactive”.
For INTKECYHSGS, the amyloid nucleation score was “inactive”.
For INWCSVTDRCHKGMCLKSAG, the amyloid nucleation score was “inactive”.
INYQLMW gave an amyloid nucleation score of 0.9 ± 0.1.
For IPAELDRQNSSAVNTPYHEM, the amyloid nucleation score was “inactive”.
For IPDDDFFLLALSTLN, the amyloid nucleation score was “inactive”.
With IPLDRMCFFSMK the amyloid nucleation score was “inactive”.
In the case of IPQNNLSDWLKCQMILVKEY, the amyloid nucleation score is reported as “inactive”.
With IPSWREWVYGVINWRAGSSP the amyloid nucleation score was “inactive”.
With IPYKHIHRMPFFYHWQQRFG the amyloid nucleation score was “inactive”.
Work on IQLIILMASTGSLYLPSDWT yielded an amyloid nucleation score of 0.349 ± 0.18.
For IQNSRNNKHYATFGTQFFMS, the amyloid nucleation score was “inactive”.
For IQSAMSLIVIYHGK, the amyloid nucleation score was 2.69 ± 0.076.
IQYLLLLSTTARFLWKCFSL gave an amyloid nucleation score of 0.37 ± 0.28.
Substance IRFPTHSMYSLLYKRFLSPD has an amyloid nucleation score of -0.744 ± 1.8.
For IRGFVSIW, the amyloid nucleation score was “inactive”.
In the case of IRGYFIPCGETLDEDLLFKQ, the amyloid nucleation score is reported as “inactive”.
With IRRRLEMLNTSLYSHI the amyloid nucleation score was “inactive”.
Work on IRTFIIQADSSVVPIKVFYR yielded an amyloid nucleation score of 1.55 ± 0.099.
In the case of IRTGDLVFVWYIRVTNTIPC, the amyloid nucleation score is reported as “inactive”.
For IRVMA, the amyloid nucleation score was “inactive”.
Substance IRVSVVRSICMQSGRCEYQA has an amyloid nucleation score of 1.21 ± 0.15.
For IRYPVRV, the amyloid nucleation score was “inactive”.
In the case of ISDHTLAGIIFC, the amyloid nucleation score is reported as “inactive”.
For ISFLADYRQPSVKFVGGYVM, the amyloid nucleation score was “inactive”.
For ISGHGMKAVMSVDHSLY, the amyloid nucleation score was “inactive”.
For ISGKSHSFCCVTLFHLREGI, the amyloid nucleation score was 1.12 ± 0.17.
In the case of ISINMRAGMDG, the amyloid nucleation score is reported as “inactive”.
For ISISLLFGMTFTSFSRLIHF, the amyloid nucleation score was 1.42 ± 0.11.
Work on ISIVKGCAFGLLSTFMATPS yielded an amyloid nucleation score of 0.079 ± 0.75.
In the case of ISKLVY, the amyloid nucleation score is reported as “inactive”.

Source: the supplement of paper PMC12042874
